Measurements from patent CN117836322A.
Changes are numbered by the printed parent chain.

Target: SARS-CoV-2 RBD结构域 (wild type) (SARS-CoV-2)
Test: SPR (Biacore), antibody coupled to CM5 chip, viral protein as analyte, 25°C
Details: remark: other sources report otherwise

B1: Cv2.1353 IgG1 (antibody)
heavy: EVQLVESGGGLVQPGGSLRLSCAASGVTVSSNYMNWVRQAPGKGLEWVSVIYSGGSTFYADSVKGRFIISRDNSKNTLYLQMNSLKTEDTAVYYCARDLGPMGFDIWGQGTMVTVSSASTKGPSVFPLAPSSKSTSGGTAALGCLVKDYFPEPVTVSWNSGALTSGVHTFPAVLQSSGLYSLSSVVTVPSSSLGTQTYICNVNHKPSNTKVDKKVEPKSCDKTHTCPPCPAPELLGGPSVFLFPPKPKDTLMISRTPEVTCVVVDVSHEDPEVKFNWYVDGVEVHNAKTKPREEQYNSTYRVVSVLTVLHQDWLNGKEYKCKVSNKALPAPIEKTISKAKQPREPQVYTLPPSRDELTKNQVSLTCLVKGFYPSDIAVEWESNGQPENNYKTTPPVLDSDGSFFLYSKLTVDKSRWQQGNVFSCSVMHEALHNHYTQKSLSLSPGK
light: DIQMTQSPSFLSASVGDRVTITCRASQGISSYLAWYQQKPGKAPKLLIYAASTLQSGVPSRFSGSGSGTEFTLTISSLQPEDFATYYCQQLNSDPPVTFGPGTKVDIKRTVAAPSVFIFPPSDEQLKSGTASVVCLLNNFYPREAKVQWKVDNALQSGNSQESVTEQDSKDSTYSLSSTLTLSKADYEKHKVYACEVTHQGLSSPVTKSFNRGEC
Kd: < 1000 nM

B2: Cv2.3194 IgG1 (antibody)
heavy: EVQLVESGGGLIQPGGSLRLSCAASGITVTSNYMSWVRQAPGKGLEWVSVIYPGGSTFYADSVKGRFTISRDNSKNTLYLQMNSLRAEDTAVYYCARDLVVYGMDVWGQGTTVTVSSASTKGPSVFPLAPSSKSTSGGTAALGCLVKDYFPEPVTVSWNSGALTSGVHTFPAVLQSSGLYSLSSVVTVPSSSLGTQTYICNVNHKPSNTKVDKKVEPKSCDKTHTCPPCPAPELLGGPSVFLFPPKPKDTLMISRTPEVTCVVVDVSHEDPEVKFNWYVDGVEVHNAKTKPREEQYNSTYRVVSVLTVLHQDWLNGKEYKCKVSNKALPAPIEKTISKAKQPREPQVYTLPPSRDELTKNQVSLTCLVKGFYPSDIAVEWESNGQPENNYKTTPPVLDSDGSFFLYSKLTVDKSRWQQGNVFSCSVMHEALHNHYTQKSLSLSPGK
light: EIVLTQSPGTLSLSPGERATLSCRASQSVSSSYLAWYQQKPGQAPRLLIYGASSRATGIPGRFSGSGSGTDFTLTISRLEPEDFAIYYCQQGVTFGGGTKVEIKRTVAAPSVFIFPPSDEQLKSGTASVVCLLNNFYPREAKVQWKVDNALQSGNSQESVTEQDSKDSTYSLSSTLTLSKADYEKHKVYACEVTHQGLSSPVTKSFNRGEC
Kd: < 1000 nM

B3: Cv2.5213 IgG1 (antibody)
heavy: B2 heavy with I27F, T30S, V50L, P53S, F58Y, V100N, V101Y, T111A
light: not shown
Kd: < 1000 nM

B4: Cv2.3235 IgG1 (antibody)
heavy: B2 heavy with I27F, T30S, S31R, P53S, L99G, V100D, V101Y
light: DIQMTQSPSFLSASVGDRVTITCRASQGISSFLAWYQQKPGKAPKLLIYGASTLQSGVTSRFSGSGSGTEFTLTISSLQPEDFATYYCQRLDSYPPITFGQGTRLEIKRTVAAPSVFIFPPSDEQLKSGTASVVCLLNNFYPREAKVQWKVDNALQSGNSQESVTEQDSKDSTYSLSSTLTLSKADYEKHKVYACEVTHQGLSSPVTKSFNRGEC
Kd: < 1000 nM
